For this assay, the target named is V5-UL56 (HCMV strain AD169), plasmid-expressed (human cytomegalovirus strain AD169).

With “FLAG-UL51 (HCMV strain AD169), plasmid-expressed (natural protein)”, the percentage of transfected HEK-293 T cells with nuclear staining of UL56 by confocal microscopy, in the presence of UL51 (UL56 alone exclusively cytoplasmic) (% of cells with nuclear staining) was found to be 62.
With “MYC-UL89 (HCMV strain AD169), plasmid-expressed (natural protein)”, the percentage of transfected HEK-293 T cells with nuclear staining of UL56 by confocal microscopy, in the presence of UL89 (UL56 alone exclusively cytoplasmic) (% of cells with nuclear staining) worked out at 37 and the percentage of transfected HEK-293 T cells with nuclear staining of UL89 by confocal microscopy, in the presence of UL56 (UL89 alone exclusively cytoplasmic) (% of cells with nuclear staining) came out at 26.

The values above are taken from PMC3547700.
